T1: human OX40L expressed on cells (K562-hOX40L cells; HUVEC) (human, UniProt P23510 1-183)
T1 sequence (looked up): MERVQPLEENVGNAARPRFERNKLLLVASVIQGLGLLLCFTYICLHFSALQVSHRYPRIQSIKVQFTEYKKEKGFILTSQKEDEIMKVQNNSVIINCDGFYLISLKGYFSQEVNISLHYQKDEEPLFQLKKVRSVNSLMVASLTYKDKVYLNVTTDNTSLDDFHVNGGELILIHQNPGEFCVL

T2: Recombinant soluble human OX40L fused to a Histidine tag (human, UniProt P23510 51-183)
T2 construct: extracellular domain; there it was reduced and LDS-denatured; also called hOX40L-His; hOx40L-His; not shown: Histidine tag
T2 sequence (looked up): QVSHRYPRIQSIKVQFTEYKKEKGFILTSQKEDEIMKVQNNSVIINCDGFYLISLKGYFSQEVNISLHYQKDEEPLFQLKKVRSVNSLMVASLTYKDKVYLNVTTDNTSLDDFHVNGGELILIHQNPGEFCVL


Experiments:
[1] = molecular target: T1, human OX40L expressed on cells …; test: cell-based or functional assay
[2] = molecular target: T2, Recombinant soluble human OX40L fused …; test: SPR, Biacore 3000; antibody captured via anti-Fcγ on CM5, hOX40L-His as analyte, 1:1 Langmuir fit; native hOX40L-His as analyte in SPR, antibody captured via Anti-hFcg, HBS-P pH 7.4, 25 C
Procedure: (§1) Instrument: Biacore 3000, running and reaction buffer: HBS-P (10 mM HEPES, 150 mM NaCl, 0.005% Tween 20, ph 7.4), 25° C. Injection of analyte was performed at 7 concentrations between 0.78 nM and 100 nM for 3 minutes and washed with HBS-P for 5 minutes. Regeneration of the surface (carboxymethylated dextrane surface, CM) was performed by two injections of 10 mM Glycine pH 2.0 for 1 min each. The chip, assay format and sequence of injections and kinetic data correspond to the description in the following table. Kinetic data were calculated by fitting kinetic data to a 1:1 Langmuir binding model.

[3] = molecular target: T2, Recombinant soluble human OX40L fused …; test: SPR competition; hOX40L-His (10 nM) preincubated with antibody (0.78-100 nM), injected over immobilized OX40-hFc; native hOX40L-His (10 nM) preincubated with the antibody in solution, competition for immobilized OX40-hFc
Procedure: Instrument: Biacore 3000, running and reaction buffer: HBS-P (10 mM HEPES, 150 mM NaCl, 0.005% Tween 20, ph 7.4), 25° C. Prior to injection the analyte (10 nM) and competitor (eight concentrations between 0.78 nM and 100 nM) were preincubated for at least 20 min at 22° C. Injection of analyte+/−competitor was performed for 3 minutes and washed with HBS-P for three minutes. Regeneration of the surface was performed by two injections of 10 mM Glycine pH 2.0 for 1 min each. The chip, assay format and sequence of injections and kinetic data correspond to the description in the following table 3.

[4] = molecular target: T2, Recombinant soluble human OX40L fused …; test: SPR, Biacore 3000; antibody captured via anti-Fcγ on CM5, hOX40L-His as analyte, 1:1 Langmuir fit
Procedure: as §1

IC50, IL-2 release of PHA-activated PBL co-stimulated with K562_OX40L cells [1] [nM] | Kd [2] [nM] | koff [2] [s⁻¹] | kon [2] [M⁻¹ s⁻¹] | IC50 [3] [nM] | Kd [4] [nM] | koff [4] [s⁻¹] | kon [4] [M⁻¹ s⁻¹] | Binder
10 | < 0.015 | < 1e-06 | 68400 | 3 |  |  |  | Human anti-human OX40L monoclonal antibody LC.005 (antibody, IgG1, V domains shown, also called LC2010-005; hu-Mab<hOX40L>LC.005) VH: QVQLVESGGGVVQPGRSLRLSCAASGFTFSNFGMHWVRQAPGKGLEWVAAIWYDGHDKYYSYYVKGRFTISRDNSKNTLFLQMNSLRAEDTAVYYCARDSSSWYRYFDYWGQGTLVTVSS VL: not shown
 |  |  |  |  | 0.399 | 2.5e-05 | 62500 | Human anti-human OX40L monoclonal antibody LC.010 (antibody, IgG1, V domains shown, also called LC2010-010; hu-Mab<hOX40L>LC.010) VH: QVQLVESGGGVVQPGRSLRLSCAASGFTFSNFGMHWVRQAPGKGLEWVAAIWYDGHDKYYAYYVKGRFTISRDNSKNTLFLQMNSLRAEDTAVYYCARDSSSWYRYFDYWGQGTLVTVSS VL: not shown
 |  |  |  |  | < 0.014 | 2.09e-07 | 70100 | Human anti-human OX40L monoclonal antibody LC.033 (antibody, V domains shown, also called LC2010-033; hu-Mab<hOX40L>LC.033) VH: QKQLVEFGGGVVQPGRSLRLSCAASGFTFSNYGMHWVRQAPGKGLEWVAVIWNDGSNKYYVDSVKGRFIISRDNSKNTLYLQMNSLRAEDTAVYYCARDRMGIYYYGMDVWGQGTTVTVSS VL: EIVLTQSPATLSLSPGERATLSCRASQGVSRYLAWYQQKPGQAPRLLIYDASNRATGIPARVSGSGPGTDFTLTISSLEPEDFAVDYCQQRSNWQYTFGQGTKLEI

From US7501496 (ROCHE PALO ALTO, dated 2009)
